{
  "source": "paper PMC11574045",
  "about": "“A cofactor-induced repressive type of transcription factor condensation can be induced by synthetic peptides to suppress tumorigenesis” (The EMBO Journal, 2024)",
  "test_system": "HEK293FT cells transfected with TF library",
  "experiment": "Screening of TF condensates based on fluorescent puncta",
  "type": "cell-based",
  "conditions": "Figure 1B numerical data; TF library screen, one value per transcriptional factor",
  "method_in_brief": "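Cells were seeded onto plasmid/PEI-loaded wells (plasmid 1.6 μg/ml final) and grown 60 h. Medium with or without glucose followed for 12 h. Fixed, permeabilized cells were stained against Flag or GAL4 tags, and condensate puncta were quantified from 50 random fields per well.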",
  "data": [
    {"molecule": "SUV39H1 (protein, UniProt O43463 1-412, looked up) Histone-lysine …: MAENLKGCSVCCKSSWNQLQDLCRLAKLSCPALGISKRNLYDFEVEYLCDYKKIREQEYYLVKWRGYPDSESTWEPRQNLKCVRILKQFHKDLERELLRRHHRSKTPRHLDPSLANYLVQKAKQRRALRRWEQELNAKRSHLGRITVENEVDLDGPPRAFVYINEYRVGEGITLNQVAVGCECQDCLWAPTGGCCPGASLHKFAYNDQGQVRLRAGLPIYECNSRCRCGYDCPNRVVQKGIRYDLCIFRTDDGRGWGVRTLEKIRKNSFVMEYVGEIITSEEAERRGQIYDRQGATYLFDLDYVEDVYTVDAAYYGNISHFVNHSCDPNLQVYNVFIDNLDERLPRIAFFATRTIRAGEELTFDYNMQVDPVDMESTRMDSNFGLAGLPGSPKKRVRIECKCGTESCRKYLF", "values": [
      {"measurement": "Z score of condensed fraction", "result": -0.8281}
    ]},
    {"molecule": "TADA2B (protein, UniProt Q86TJ2 1-420, looked up) Transcriptional adapter 2-beta: MAELGKKYCVYCLAEVSPLRFRCTECQDIELCPECFSAGAEIGHHRRYHGYQLVDGGRFTLWGPEAEGGWTSREEQLLLDAIEQFGFGNWEDMAAHVGASRTPQEVMEHYVSMYIHGNLGKACIPDTIPNRVTDHTCPSGGPLSPSLTTPLPPLDISVAEQQQLGYMPLRDDYEIEYDQDAETLISGLSVNYDDDDVEIELKRAHVDMYVRKLKERQRRKNIARDYNLVPAFLGKDKKEKEKALKRKITKEEKELRLKLRPLYQFMSCKEFDDLFENMHKEKMLRAKIRELQRYRRNGITKMEESAEYEAARHKREKRKENKNLAGSKRGKEDGKDSEFAAIENLPGFELLSDREKVLCSSLNLSPARYVTVKTIIIKDHLQKRQGIPSKSRLPSYLDKVLKKRILNFLTESGWISRDAS", "values": [
      {"measurement": "Z score of condensed fraction", "result": -0.4021}
    ]},
    {"molecule": "TAF1C (protein, UniProt Q15572 1-869, looked up) TATA box-binding …: MDFPSSLRPALFLTGPLGLSDVPDLSFMCSWRDALTLPEAQPQNSENGALHVTKDLLWEPATPGPLPMLPPLIDPWDPGLTARDLLFRGGCRYRKRPRVVLDVTEQISRFLLDHGDVAFAPLGKLMLENFKLEGAGSRTKKKTVVSVKKLLQDLGGHQPWGCPWAYLSNRQRRFSILGGPILGTSVASHLAELLHEELVLRWEQLLLDEACTGGALAWVPGRTPQFGQLVYPAGGAQDRLHFQEVVLTPGDNPQFLGKPGRIQLQGPVRQVVTCTVQGESKALIYTFLPHWLTCYLTPGPFHPSSALLAVRSDYHCAVWKFGKQWQPTLLQAMQVEKGATGISLSPHLPGELAICSRSGAVCLWSPEDGLRQIYRDPETLVFRDSSSWRWADFTAHPRVLTVGDRTGVKMLDTQGPPGCGLLLFRLGAEASCQKGERVLLTQYLGHSSPKCLPPTLHLVCTQFSLYLVDERLPLVPMLKWNHGLPSPLLLARLLPPPRPSCVQPLLLGGQGGQLQLLHLAGEGASVPRLAGPPQSLPSRIDSLPAFPLLEPKIQWRLQERLKAPTIGLAAVVPPLPSAPTPGLVLFQLSAAGDVFYQQLRPQVDSSLRRDAGPPGDTQPDCHAPTASWTSQDTAGCSQWLKALLKVPLAPPVWTAPTFTHRQMLGSTELRREEEEGQRLGVLRKAMARGQLLLQRDLGSLPAAEPPPAPESGLEDKLSERLGEAWAGRGAAWWERQQGRTSEPGRQTRRPKRRTQLSSSFSLSGHVDPSEDTSSPHSPEWPPADALPLPPTTPPSQELTPDACAQGVPSEQRQMLRDYMAKLPPQRDTPGCATTPPHSQASSVRATRSQQHTPVLSSSQPLRKKPRMGF", "values": [
      {"measurement": "Z score of condensed fraction", "result": 0.1895}
    ]},
    {"molecule": "STAT5B (protein, UniProt P51692 1-787, looked up) Signal transducer and …: MAVWIQAQQLQGEALHQMQALYGQHFPIEVRHYLSQWIESQAWDSVDLDNPQENIKATQLLEGLVQELQKKAEHQVGEDGFLLKIKLGHYATQLQNTYDRCPMELVRCIRHILYNEQRLVREANNGSSPAGSLADAMSQKHLQINQTFEELRLVTQDTENELKKLQQTQEYFIIQYQESLRIQAQFGPLAQLSPQERLSRETALQQKQVSLEAWLQREAQTLQQYRVELAEKHQKTLQLLRKQQTIILDDELIQWKRRQQLAGNGGPPEGSLDVLQSWCEKLAEIIWQNRQQIRRAEHLCQQLPIPGPVEEMLAEVNATITDIISALVTSTFIIEKQPPQVLKTQTKFAATVRLLVGGKLNVHMNPPQVKATIISEQQAKSLLKNENTRNDYSGEILNNCCVMEYHQATGTLSAHFRNMSLKRIKRSDRRGAESVTEEKFTILFESQFSVGGNELVFQVKTLSLPVVVIVHGSQDNNATATVLWDNAFAEPGRVPFAVPDKVLWPQLCEALNMKFKAEVQSNRGLTKENLVFLAQKLFNNSSSHLEDYSGLSVSWSQFNRENLPGRNYTFWQWFDGVMEVLKKHLKPHWNDGAILGFVNKQQAHDLLINKPDGTFLLRFSDSEIGGITIAWKFDSQERMFWNLMPFTTRDFSIRSLADRLGDLNYLIYVFPDRPKDEVYSKYYTPVPCESATAKAVDGYVKPQIKQVVPEFVNASADAGGGSATYMDQAPSPAVCPQAHYNMYPQNPDSVLDTDGDFDLEDTMDVARRVEELLGRPMDSQWIPHAQS", "values": [
      {"measurement": "Z score of condensed fraction", "result": 2.437}
    ]},
    {"molecule": "TADA3L (protein, UniProt O75528 1-432, looked up) Transcriptional adapter 3: MSELKDCPLQFHDFKSVDHLKVCPRYTAVLARSEDDGIGIEELDTLQLELETLLSSASRRLRVLEAETQILTDWQDKKGDRRFLKLGRDHELGAPPKHGKPKKQKLEGKAGHGPGPGPGRPKSKNLQPKIQEYEFTDDPIDVPRIPKNDAPNRFWASVEPYCADITSEEVRTLEELLKPPEDEAEHYKIPPLGKHYSQRWAQEDLLEEQKDGARAAAVADKKKGLMGPLTELDTKDVDALLKKSEAQHEQPEDGCPFGALTQRLLQALVEENIISPMEDSPIPDMSGKESGADGASTSPRNQNKPFSVPHTKSLESRIKEELIAQGLLESEDRPAEDSEDEVLAELRKRQAELKALSAHNRTKKHDLLRLAKEEVSRQELRQRVRMADNEVMDAFRKIMAARQKKRTPTKKEKDQAWKTLKERESILKLLDG", "values": [
      {"measurement": "Z score of condensed fraction", "result": 1.084}
    ]},
    {"molecule": "SSX3 (protein, UniProt Q99909 1-188, looked up) Protein SSX3: MNGDDTFARRPTVGAQIPEKIQKAFDDIAKYFSKEEWEKMKVSEKIVYVYMKRKYEAMTKLGFKAILPSFMRNKRVTDFQGNDFDNDPNRGNQVQRPQMTFGRLQGIFPKIMPKKPAEEGNVSKEVPEASGPQNDGKQLCPPGKPTTSEKINMISGPKRGEHAWTHRLRERKQLVIYEEISDPEEDDE", "values": [
      {"measurement": "Z score of condensed fraction", "result": 0.2674}
    ]},
    {"molecule": "TADA2L (protein, UniProt O75478 1-443, looked up) Transcriptional adapter …: MDRLGPFSNDPSDKPPCRGCSSYLMEPYIKCAECGPPPFFLCLQCFTRGFEYKKHQSDHTYEIMTSDFPVLDPSWTAQEEMALLEAVMDCGFGNWQDVANQMCTKTKEECEKHYMKHFINNPLFASTLLNLKQAEEAKTADTAIPFHSTDDPPRPTFDSLLSRDMAGYMPARADFIEEFDNYAEWDLRDIDFVEDDSDILHALKMAVVDIYHSRLKERQRRKKIIRDHGLINLRKFQLMERRYPKEVQDLYETMRRFARIVGPVEHDKFIESHALEFELRREIKRLQEYRTAGITNFCSARTYDHLKKTREEERLKRTMLSEVLQYIQDSSACQQWLRRQADIDSGLSPSIPMASNSGRRSAPPLNLTGLPGTEKLNEKEKELCQMVRLVPGAYLEYKSALLNECNKQGGLRLAQARALIKIDVNKTRKIYDFLIREGYITKG", "values": [
      {"measurement": "Z score of condensed fraction", "result": 2.809}
    ]},
    {"molecule": "STAT5A (protein, UniProt P42229 1-794, looked up) Signal transducer and …: MAGWIQAQQLQGDALRQMQVLYGQHFPIEVRHYLAQWIESQPWDAIDLDNPQDRAQATQLLEGLVQELQKKAEHQVGEDGFLLKIKLGHYATQLQKTYDRCPLELVRCIRHILYNEQRLVREANNCSSPAGILVDAMSQKHLQINQTFEELRLVTQDTENELKKLQQTQEYFIIQYQESLRIQAQFAQLAQLSPQERLSRETALQQKQVSLEAWLQREAQTLQQYRVELAEKHQKTLQLLRKQQTIILDDELIQWKRRQQLAGNGGPPEGSLDVLQSWCEKLAEIIWQNRQQIRRAEHLCQQLPIPGPVEEMLAEVNATITDIISALVTSTFIIEKQPPQVLKTQTKFAATVRLLVGGKLNVHMNPPQVKATIISEQQAKSLLKNENTRNECSGEILNNCCVMEYHQATGTLSAHFRNMSLKRIKRADRRGAESVTEEKFTVLFESQFSVGSNELVFQVKTLSLPVVVIVHGSQDHNATATVLWDNAFAEPGRVPFAVPDKVLWPQLCEALNMKFKAEVQSNRGLTKENLVFLAQKLFNNSSSHLEDYSGLSVSWSQFNRENLPGWNYTFWQWFDGVMEVLKKHHKPHWNDGAILGFVNKQQAHDLLINKPDGTFLLRFSDSEIGGITIAWKFDSPERNLWNLKPFTTRDFSIRSLADRLGDLSYLIYVFPDRPKDEVFSKYYTPVLAKAVDGYVKPQIKQVVPEFVNASADAGGSSATYMDQAPSPAVCPQAPYNMYPQNPDHVLDQDGEFDLDETMDVARHVEELLRRPMDSLDSRLSPPAGLFTSARGSLS", "values": [
      {"measurement": "Z score of condensed fraction", "result": -0.6398}
    ]},
    {"molecule": "SRY (protein, UniProt Q05738 1-392, looked up) Sex-determining region Y …: MEGHVKRPMNAFMVWSRGERHKLAQQNPSMQNTEISKQLGCRWKSLTEAEKRPFFQEAQRLKILHREKYPNYKYQPHRRAKVSQRSGILQPAVASTKLYNLLQWDRNPHAITYRQDWSRAAHLYSKNQQSFYWQPVDIPTGHLQQQQQQQQQQQFHNHHQQQQQFYDHHQQQQQQQQQQQQFHDHHQQKQQFHDHHQQQQQFHDHHHHHQEQQFHDHHQQQQQFHDHQQQQQQQQQQQFHDHHQQKQQFHDHHHHQQQQQFHDHQQQQQQFHDHQQQQHQFHDHPQQKQQFHDHPQQQQQFHDHHHQQQQKQQFHDHHQQKQQFHDHHQQKQQFHDHHQQQQQFHDHHQQQQQQQQQQQQQFHDQQLTYLLTADITGWKGIKHCTGPDPEPF", "values": [
      {"measurement": "Z score of condensed fraction", "result": -0.331}
    ]},
    {"molecule": "BHLHE41 (protein, UniProt Q9C0J9 1-482, looked up) Class E basic …: MDEGIPHLQERQLLEHRDFIGLDYSSLYMCKPKRSMKRDDTKDTYKLPHRLIEKKRRDRINECIAQLKDLLPEHLKLTTLGHLEKAVVLELTLKHLKALTALTEQQHQKIIALQNGERSLKSPIQSDLDAFHSGFQTCAKEVLQYLSRFESWTPREPRCVQLINHLHAVATQFLPTPQLLTQQVPLSKGTGAPSAAGSAAAPCLERAGQKLEPLAYCVPVIQRTQPSAELAAENDTDTDSGYGGEAEARPDREKGKGAGASRVTIKQEPPGEDSPAPKRMKLDSRGGGSGGGPGGGAAAAAAALLGPDPAAAAALLRPDAALLSSLVAFGGGGGAPFPQPAAAAAPFCLPFCFLSPSAAAAYVQPFLDKSGLEKYLYPAAAAAPFPLLYPGIPAPAAAAAAAAAAAAAAAAFPCLSSVLSPPPEKAGAAAATLLPHEVAPLGAPHPQHPHGRTHLPFAGPREPGNPESSAQEDPSQPGKEAP", "values": [
      {"measurement": "Z score of condensed fraction", "result": -0.9569}
    ]},
    {"molecule": "SSX5 (protein, UniProt O60225 1-188, looked up) Protein SSX5: MNGDDAFVRRPRVGSQIPEKMQKAFDDIAKYFSEKEWEKMKASEKIIYVYMKRKYEAMTKLGFKATLPPFMRNKRVADFQGNDFDNDPNRGNQVEHPQMTFGRLQGIFPKITPEKPAEEGNDSKGVPEASGPQNNGKQLRPSGKLNTSEKVNKTSGPKRGKHAWTHRVRERKQLVIYEEISDPQEDDE", "values": [
      {"measurement": "Z score of condensed fraction", "result": 0.09353}
    ]}
  ]
}
